The values that follow come from patent publication US20160272706A1.

In test [1] the target is human FcRn protein (human) (UniProt P55899). Nature of the test: SPR (BIAcore 3000), IgG immobilised on CM5, FcRn injected; binding at pH 7.4 as a percentage of that at pH 6.
For test [2], the target named is cynomolgus monkey FcRn (cynomolgus monkey) (UniProt Q8SPV9). Described as above.
Test [3] addresses human FcRn protein (human) (UniProt P55899). As to the kind of experiment: SPR (BIAcore 3000), IgG immobilised on CM5, FcRn injected at pH 6, steady-state 1:1 fit.
The target of test [4] is cynomolgus monkey FcRn (cynomolgus monkey) (UniProt Q8SPV9). The test is described as above.

human FcRn protein (human), sequence (P55899 24-290 limits assumed, chain 1 of 2): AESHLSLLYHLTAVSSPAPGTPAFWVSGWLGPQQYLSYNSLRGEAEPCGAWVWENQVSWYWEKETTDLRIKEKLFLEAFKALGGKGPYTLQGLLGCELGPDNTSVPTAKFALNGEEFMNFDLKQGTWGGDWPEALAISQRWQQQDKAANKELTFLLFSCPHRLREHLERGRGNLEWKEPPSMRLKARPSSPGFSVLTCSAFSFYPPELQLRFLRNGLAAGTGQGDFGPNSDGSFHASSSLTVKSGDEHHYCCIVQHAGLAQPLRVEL
human FcRn protein (human), sequence (P61769 21-119 limits assumed, chain 2 of 2, further chain): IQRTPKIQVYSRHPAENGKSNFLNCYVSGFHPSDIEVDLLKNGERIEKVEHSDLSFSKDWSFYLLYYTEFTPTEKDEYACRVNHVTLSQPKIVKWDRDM
cynomolgus monkey FcRn (cynomolgus monkey), sequence (Q8SPV9 24-290 limits assumed, chain 1 of 2): as the sequence (P55899 24-290 limits assumed, chain 1 of 2) above, with N39D, E44Q, G99S, S189G, S190N, L217M counted along it
cynomolgus monkey FcRn (cynomolgus monkey), sequence (Q8SPW0 21-119 limits assumed, chain 2 of 2, further chain): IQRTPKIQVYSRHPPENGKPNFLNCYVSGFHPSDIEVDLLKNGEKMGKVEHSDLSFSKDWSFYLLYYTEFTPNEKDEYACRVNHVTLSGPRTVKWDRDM

Turning to NIP228 (antibody), the pH7.4/pH6 in test [1] and in test [2] was 1% throughout. Further, the figures for the Kd in test [3] and in test [4] were 2040 nM and 1860 nM, respectively.
